Measurements as given in patent US20180271864.

Biological target: T1, Flag-tagged human PZR (UniProt O95297)
T1 sequence: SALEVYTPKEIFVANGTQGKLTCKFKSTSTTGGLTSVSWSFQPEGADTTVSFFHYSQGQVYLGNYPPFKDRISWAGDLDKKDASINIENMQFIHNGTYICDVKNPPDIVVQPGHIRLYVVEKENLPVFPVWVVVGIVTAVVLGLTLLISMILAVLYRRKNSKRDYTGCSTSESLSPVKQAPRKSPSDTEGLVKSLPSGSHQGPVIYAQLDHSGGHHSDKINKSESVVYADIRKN

Src recombinant protein
in vitro Src kinase assay, immunoblot with anti-pPZR (Y241 or Y263) antibodies: These results implicated c-Src as directly phosphorylating PZR at Shp2 binding sites
